Experiment: label from the status in PepcDB records
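Note: failed if final PepcDB status was selected cloned or expressed and not failed if soluble or beyond.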

Row | Sequence | protein production
1 | MSSVPSAGQVRRRRVFYIPGYDPIHPRRYRELYRKESAEQARISGYSVTLKPKTTKGPYGWHVRSEQDGAEVAADVEVLVWSDIVRGSMSNTIPATYAQLARTAWTYIASGVLWRLMRLRKGPVIAALYPVGMLLAQLFAALFLVWLGWRLGGLTGWPLAALAGMGVGAGAGVYLLRWFRSKDGTFFAYYLMHDYAYSARWRGANPPELEARIGDFAERIAGALASDADEVLVVGHSSGAHVGVSVLADLIRAGRVPADGPALGFLTLGQVVPMVSFLPEAQRLRADLHYLCTRDELAWVDVSAPGDGCAFALCDPVSVSGVAPATGKRWPLVLSAAFTKTLSPARWAELRWRFFRLHFQYLCAFDQVGDYDYFRITAGPQTLAARYRDRAPSKSRIERAVSKYTDMGAS | failed
2 | MNILYNERIDGVLPAVDKQQLLDELRRQLPDLDVLHRTEELRPYECDGLSAYRTTPMLVVLPRHLEEVQTLLRLCHAHRVPVVARGAGTGLSGGALPLEKGVLLVMARFNQILAIDPAARVARVQPGVRNLAISQAAAPHGLYYAPDPSSQIACSIGGNVAENAGGVHCLKYGLTVHNLLKVEILTVEGEAMTLGSDTLDSPGFDLLALFTGSEGMLGIITEVTVKLLPRPQVAKVLLAAFDSVEKAGRAVADIIAAGIIPGGLEMMDNLAIRAAEDFIHAGYPVDAEAILLCELDGVEADVHADCERVREVLTQAGATEVRQAIDEAERVRFWAGRKNAFPAVGRLSPDYYCMDGTIPRRALPGVLRGISELSGQYGLRVANVFHAGDGNMHPLILFDANQPGELQRAEALGGKILELCVEVGGSITGEHGVGREKINQMCAQFNSDELTFFHAIKAAFDASGMLNPGKNIPTLQRCAEFGAMHIHAGQLPFPELERF | failed
3 | MISNFIKRAITGILFVAILVGCILYNSFSFGILFMAISALTIYEFGQLINSRAEGVNVNKTIIMLGGAYLFLAVMGFCIDAADSKIFIPYLLLLLYLMISELYLKKASSMLNWAYSMLSQLYIGLPFALLNVLAFHTDPEYSSVSYNPILPLSIFIFLWLSDTGAYCVGSLIGKHRLFERISPKKSWEGSIGGGVVAIGASFVLAHYFTIMSMWEWAGLALVVVVFGTWGDLTESLLKRQLHVKDSGTILPGHGGMLDRFDSALMAIPAAVFYLYALTWF | failed
4 | MTTHITKAPAYWSRDAIWPGIVAVGPMLPGTLAFGMAFGALCAQKNFTLAEVEVMMATVYGGLSQFVAVQAWPDQLTPSTIAALALLTTTVNIRFFLMTASMRPWFGTLPAWQAYPPLLLVTDGGWLAAMRYREHGGANAWFYLGGALVLYLVWLVSAIPGFLLAEQLADPKKFGVDIAMPAFFAALLVPAWKGPRRAIPWLVSGIVALTVHWLIPGYWFIIAGALSGAITAGLMDEPPVATSHAGHSS | failed
5 | MKDNTPASSPERWIIYGANGYTGELIAREAVKRGHHPILAGRSLEKVQSLAAELGLQSLAFSLEDKSSAVQHISGSSLVLNCAGPFSSTAKPMMKACLEAGAHYLDITGEISVFEFAQTLQSQAKEASVVLCSGVGFDVIPTDCIAATLKAALPDATHLSLGFDSRSGFSPGTAKTSVEGLAQGGKVRLNGKITTVPLAYKVHNIDFGDGEKLAMTIPWGDVSTAYYTTGIENIDVFIPGSPNMIKNAKRANWVRPLLGITWVQNLIKSRIERTVKGPNEEQRNQLPTYVWGKASNKLGQSKTARVQTANGYSLTVTGSLAIVEHLLHTKPEAGVYTPSKLMGSNFVSQLPGSSGITIEE | failed
6 | MKTASYAQSFSRAAKEYDAYAYLQQTVARELASWIEGMECESILDLGCGTGALWRALRFKPRFFTGVDLSMEMLDLHPQDPAIRLIQSDFNHPSLYEHSYDLIAASSSLQWSRDLAQSFDLIAKSAQNVAFAIFTSESLWEIHDYVDSHSPIPSKERIESLLKERFAGEFELKRYPLSFPSRVAMLSYLKGSGISGGRRLGFAQSK | failed
7 | MMALTMDFSTQLLEHQVTAILLLDDQRQIHYANPAAEQLFSQSAQRMAQHAFDDLFHSPQFDLSTLMLPLNTGQSVTDSDVRIMIDEQPLYIELTSSPVAINKSLYLLVEIRQIE | failed
8 | MGSLGFLAGGVMPLEQLKQELSEVKGVFGVNLFRPQTDAPKPSDIDELAGLLSSAFRQFGLDEPTVPTPDLSNGWEAKFEAVLAAKPAVFSCTFGIFSAEEFARIKATGIEAWVTVTNPEDALAAQKAGANALVVQGPEAGGHRSTWSIEVEPDERDLKTLLAAVKQAGVYLPLIAAGGLSTSADVAAILEAGASAASCGSAFLLSDEAGTSSLNREILDAAPALGLESVSSRAFSGRYARGVETRFTRSNEGLPPLYPYLNPMITSLRKVAGSAGNWDYAYCLVGVGLESIAKGSAKQILESLTPSALEHHHHHH | failed
9 | MTQDEQICSLALTRIPGLGPTGAFRLVSSLGSATRVFEHRKELSQLVPGVSEKIITALNNSEAFRRAEQELTFCEKNHIRCLTLNDEGYPGRLRECDDAPLALFYRGNADLNALHVINMVGTRHATPYGQDICTRFLADLSVLCPNALIVSGLAYGIDIHAHRAALQNHFKTIGVLAHGLDRIYPAEHRKTAVSMLEQGGLLTEFTSGTNPDRQNFVKRNRIVAGMSDATVVIESAAKGGALITAELAESYHRDCFAFPGRCNDEYSIGCNNLIRKNQAVLITSAEDLVKAMGWESSPKTEKTVQRELFPDLSEEEERIVKRLGKMSEGLQINTLVIDTNIPVNRMSALLFELEMKGVIRALAGGVYRLIM | not failed
10 | MKVGIDAGGTLIKIVQESQQGRSYETKLTTNISEVIAWLNANTFESISLTGGNAGVIAENLNVDATIFVEFDASSKGLGMLLKEQGHHIDEYIFANVGTGTSLHYFDGKQQRRVGGVGTGGGMIQGLGYLLSQITDYEALTNLAQSGDRDTIDLKVKHIYKDTEPPIPGELTAANFGNVLHNLDVDFSPANKLASVVGVVGEVITTMAITVARENKTENVVYIGSSFNNNPLLREVIEDYTVLRGFKPYYIENGAFSGALGAIYLN | failed
11 | MRYRDNLKRSLKQAALAAGLLMTMSCAVRATPQDDLRSAVEYNRPALVQKLVAQGVDPNLDTRDGTPLLVDALKDKNIDVAEALIRAKGLDFERANAAGENALMMAAYQGLLPLVRLMVETYDVEVNKTGWTALHYAATNGHDAIVQYLLDHGAYIDAESPNGTTPLMMATMGGQITTVKLLLDEGADMNLRNQQKMDVIDFAKRYHQDEIAAGLESRRRKLAEPGAQPVPARQPAAPAGMRPAAPVVPDVPAPMPAPRAPESAIDRDATSGLPGSLSDQKTVPPPDLRGN | failed
12 | MRLSELGTGEKGVIVKVLGHGGFRKRIVEMGFIKGKTVEVLLNAPLKDPIKYKVLGYEISLRRQEAEMIEVVSEEEAKKQAEKAVYHEGLPEDVSVKEEDMKRLALGKRRTINVALVGNPNSGKTSLFNLASGAHEHVGNYSGVTVDAKEGYFDFEGYHFRIVDLPGTYSLSAYTPEEIYVRRHIVDETPDVIINVVDSSNLERNLYLTTQLIDMNVRMVVALNIYDELESSGNTLDYHLLSKLFGVPMVPTVSKKNRGLDTLFHVVINLYEGVDFFDKQGNMNPEVLKDLTEWHDSLEDRKNHEEEHLEDYVREHKRKGRVFRHIHINHGPDLEKAIDAVKEEVSKNEFIRHKYSTRFLSIKLLENDPDIESFVRTLPNAGEIFRIRDKMAKRVQETMNEDCESAITDAKYGFISGALKETFTDNHLEQAQTTKVLDAIVTHRIWGYPIFFLFMYLMFEGTFVLGEYPMMGIEWLVGQIGDLIRNNMSEGPLKDMLVDGIVGGVGGVIVFLPNILILYFCISLMEDSGYMARAAFIMDKIMHKMGLHGKSFIPLIMGFGCNVPAIMASRTIENRKSRLITMLINPLMSCSARLPIYLLLVGAFFPNNASLVLLSIYAIGIFLAVLLARLFSKFLVKGDDTPFVMELPPYRMPTAKSIFRHTWEKGAQYLKKMGGIIMIASIIIWFLGYYPNHEAYETVAEQQENSYIGQLGRAIEPVIKPMGFDWKLGIGLISGVGAKELVVSTLGVLYVDDPEADEASLAERIPITPLVAFCYMLFVLIYFPCIAALAAIKQESGSWKWALFAACYTTGLAWLVAFSVYQIGGMFV | failed

Source: a protein production outcome set (Wang et al. 2014)
